Here are results for one substance from patent US11319374B2, “Inhibitors of prototypic galectin dimerization and uses thereof” (INSTITUT NATIONAL DE LA RECHERCHE SCIENTIFIQUE, priority 2015, dated 2022).

The target of one test is T1, hGal-7 homodimer (Homo sapiens, UniProt P47929).
T1 construct: made in house; host or cells: E. coli BL21 (DE3)
The test is described as follows: hGal-7 homodimer disruption, low-SDS native gel electrophoresis / Western blotting. The test is classed as biochemical. The note with it: recombinant hGal-7 0.5 μM. As to the method: (§1) Production of recombinant hGal-7 and hGal-1. Human Gal-7 cDNA was cloned into pET-22b(+) using Ndel and HindIII restriction enzymes. Human pET-Gal-1 vector was generously donated by Dr. S. Sato (McGill University, QC, Canada). The proteins were produced in E. coli BL21 (DE3) cells at 37° C. Isopropyl p-D-1-thiogalactopyranoside (IPTG) (1 mM) was added to the bacterial culture at OD600nm=0.6-0.7 and then incubated for 4 h at 37° C. to allow protein production. Bacterial pellets were resuspended in lysis buffer (0.7 mg/mL lysozyme, 10 mM Tris pH 8, 100 mM NaCl, 1 mM EDTA, 1 mM DTT and a protease inhibitor cocktail) and then incubated for 1 h at 37° C. prior to centrifugation for 30 min at 15,000×g (4° C.). The supernatant was then filtered with 500 mL bottle top filter ([…]) (Corning®, New York, N.Y., USA) and then ran through a lactose-agarose column (Sigma®, St. Louis, Mo., USA). The protein was eluted in 1 mL fractions with 150 mM lactose solution. Purified fractions were analyzed by SDS-PAGE. The hGal-7 was then concentrated and purified using Centrifugal filter units (Amicon® Ultra-15, 10K) (EMD®, Etobicoke, ON) in 20 mM potassium phosphate at pH 7.1. All subsequent experiments with the recombinant proteins were performed in the same buffer solution unless mentioned otherwise. Brilliant Coomassie blue was purchased from BioRad® (Bio-Rad Laboratories®, Mississauga, ON, Canada). The recombinant human Bcl-2 protein fragment was purchased from Abcam® (Abcam®, Cambridge, UK, Cat #ab73696).
Western blotting. For the apoptosis tests, whole-cell extracts were homogenized and resuspended in RIPA buffer (Thermo Fisher Scientific®, Rockford, Ill., USA) containing protease inhibitors (Roche®, Laval, QC, Canada). Equal amounts of whole-cell extracts (25 μg) were separated on SDS-PAGE and transferred onto nitrocellulose membranes (Bio-Rad Laboratories®). The membranes were first blocked with 5% milk [w/v] in TBS/0.5% Tween® 20 [v/v] for 1 h at room temperature and subsequently blotted overnight in a solution of TBS containing 3% BSA [w/v] and 0.5% Tween 20 [v/v]. The following antibodies were used: a rabbit anti-Poly-(ADP-ribose) polymerase (PARP)-1 (p25) polyclonal antibody (1:5000; Epitomics®, Burlingame, Calif., USA) and a mouse anti-β-actin (1:10000; Sigma-Aldrich®, St-Louis, Mo., USA). Secondary antibodies consisted of horseradish peroxidase-conjugated donkey anti-rabbit (GE Healthcare®, Buckinghamshire, England) and sheep anti-mouse (GE Healthcare®) IgG. Detection was performed using the enhanced chemiluminescence method (GE Healthcare®). For the recombinant protein tests, each peptide was dissolved and maintained in 20 mM potassium phosphate at pH 7.1. The recombinant proteins and peptide dilutions were pre-incubated for 1 h at 4° C. prior to gel migration. The native polyacrylamide gel was made without SDS to allow molecular weight differentiation between the dimer and monomer. The following antibodies were used: a goat anti-Gal-7 antibody (1:10000; R&D Systems®, Minneapolis, Minn., USA), a mouse anti-Gal-1 antibody (1:10000; Proteintech®, Chicago, Ill., USA) and a rabbit anti-Bcl-2 antibody (1:1000; Abeam®, Cambridge, UK). Secondary antibodies consisted of donkey anti-goat (R&D Systems®) or sheep anti-mouse and sheep anti-rabbit (GE Healthcare®) IgG. Detection was performed as described above.
To determine whether these peptides could inhibit the formation of the hGal-7 homodimer, recombinant hGal-7 (0.5 μM) was incubated with increasing concentrations of hGal-7(13-25), hGal-7(85-102), hGal-7(95-108) or hGal 7(129-135) and the formation of homodimers was measured. To measure the ability of the peptides to disrupt the formation of hGal-7 dimers, a mild denaturing (low SDS) native gel electrophoresis, a commonly used approach to visualize monomer-dimer equilibrium, was used (FIG. 1A and FIG. 6).
In general terms: Immunoblotting shows a protein as a band on a membrane.

Test [1] concerns the target T2, recombinant human Gal-1 (hGal-1) (Homo sapiens, UniProt P09382).
T2 construct: made in house; host or cells: E. coli BL21 (DE3)
The test is described as follows: hGal-1 dimer disruption (galectin selectivity control), low-SDS Western blotting. Type of test: biochemical. Conditions: recombinant hGal-1, FIG. 2C. On the procedure: as §1, with “The hGal-7 was then concentrated and purified using Centrifugal filter units (Amicon® Ultra-15, 10K) (EMD®, Etobicoke, ON) in 20 mM potassium phosphate at pH 7.1. All subsequent experiments with the recombinant proteins were performed in the same buffer solution unless mentioned otherwise. Brilliant Coomassie blue was purchased from BioRad® (Bio-Rad Laboratories®, Mississauga, ON, Canada). The recombinant human Bcl-2 protein fragment was purchased from Abcam® (Abcam®, Cambridge, UK, Cat #ab73696).” left out
To determine whether these peptides could inhibit the formation of the hGal-7 homodimer, recombinant hGal-7 (0.5 μM) was incubated with increasing concentrations of hGal-7(13-25), hGal-7(85-102), hGal-7(95-108) or hGal 7(129-135) and the formation of homodimers was measured. […]

Another test relates to Jurkat T cells. As to the kind of experiment: hGal-7-induced apoptosis of Jurkat T cells, PARP-1 cleavage by Western blotting. Type of test: cell-based. Conditions: 4 h at 37° C., serum-free RPMI, FIG. 5A. As to the method:
Western blotting. For the apoptosis tests, whole-cell extracts were homogenized and resuspended in RIPA buffer (Thermo Fisher Scientific®, Rockford, Ill., USA) containing protease inhibitors (Roche®, Laval, QC, Canada). Equal amounts of whole-cell extracts (25 μg) were separated on SDS-PAGE and transferred onto nitrocellulose membranes (Bio-Rad Laboratories®). The membranes were first blocked with 5% milk [w/v] in TBS/0.5% Tween® 20 [v/v] for 1 h at room temperature and subsequently blotted overnight in a solution of TBS containing 3% BSA [w/v] and 0.5% Tween 20 [v/v]. The following antibodies were used: a rabbit anti-Poly-(ADP-ribose) polymerase (PARP)-1 (p25) polyclonal antibody (1:5000; Epitomics®, Burlingame, Calif., USA) and a mouse anti-β-actin (1:10000; Sigma-Aldrich®, St-Louis, Mo., USA). Secondary antibodies consisted of horseradish peroxidase-conjugated donkey anti-rabbit (GE Healthcare®, Buckinghamshire, England) and sheep anti-mouse (GE Healthcare®) IgG. […]
It was thus tested whether hGal-7(129-135) could modulate the binding of hGal-7 on Jurkat T cells, a cell model that is commonly used to test the pro-apoptotic activity of galectins. For this purpose, recombinant hGal-7 was labeled with fluorescein isothiocyante (FITC) and its binding on the surface of Jurkat T cells was measured by flow cytometry in absence or presence of increasing concentrations of hGal-7(129-135). […]

Where [2] appears, read: 20 mM potassium phosphate pH 7.1, FIG. 2A.

T1 sequence (P47929 2-136 limits assumed): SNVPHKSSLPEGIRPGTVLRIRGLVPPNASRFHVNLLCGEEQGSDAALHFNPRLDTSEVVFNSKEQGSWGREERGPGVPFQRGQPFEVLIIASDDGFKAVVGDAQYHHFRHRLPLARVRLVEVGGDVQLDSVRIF
T2 sequence (P09382 2-135 limits assumed): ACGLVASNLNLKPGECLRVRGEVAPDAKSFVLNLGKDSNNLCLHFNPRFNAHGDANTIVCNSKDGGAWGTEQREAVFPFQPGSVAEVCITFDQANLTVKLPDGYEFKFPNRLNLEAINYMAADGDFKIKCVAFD

In the case of “H-Leu-Asp-Ser-Val-Arg-Ile-Phe-NH2 (H-LDSVRIF-NH2; listed as Homo sapiens) [hGal-7(129-135), peptide corresponding to residues 129-135 of hGal-7]”, the “disruption of hGal-7 homodimers in the presence of lactose” value in the test with hGal-7 homodimer (0.1 mM lactose solution, FIG. 2D) is reported as “not inhibited by the presence of lactose”. Moreover, in the test with hGal-7 homodimer (setting [2]), the “concentration at which consistent decrease of hGal-7 homodimers starts” value is 10 µM and the “saturation dose for decrease of hGal-7 homodimers” value was determined as 100 µM. Besides, in test [1], the “effect on hGal-1 dimer” value is “No such effect was observed”. The “inhibition of hGal-7-induced apoptosis, PARP-1 cleavage” value in the test with Jurkat T cells is listed as “inhibited the ability of hGal-7 to induce apoptosis in Jurkat T cells”.
